Measurements reported in publication PMC2883070 (Molecular Microbiology, 2010).

T1: His-FliM (E. coli W3110, UniProt P06974 1-334)
T1 sequence (looked up): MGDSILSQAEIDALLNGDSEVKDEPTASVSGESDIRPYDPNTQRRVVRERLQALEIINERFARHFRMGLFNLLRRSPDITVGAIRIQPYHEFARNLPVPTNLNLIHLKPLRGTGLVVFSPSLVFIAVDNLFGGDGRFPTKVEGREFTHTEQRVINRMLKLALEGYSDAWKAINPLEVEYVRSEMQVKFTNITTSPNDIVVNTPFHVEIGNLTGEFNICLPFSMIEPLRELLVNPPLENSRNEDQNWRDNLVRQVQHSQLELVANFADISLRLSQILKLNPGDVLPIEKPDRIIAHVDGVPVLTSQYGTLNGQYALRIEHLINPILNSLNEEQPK

B1: CheY-His (natural protein, E. coli W3110)
chain: ADKELKFLVVDDFSTMRRIVRNLLKELGFNNVEEAEDGVDALNKLQAGGYGFVISDWNMPNMDGLELLKTIRADGAMSALPVLMVTAEAKKENIIAAAQAGASGYVVKPFTAATLEEKLNKIFEKLGM
B2: AcCheY-His (natural protein, E. coli W3110)
chain: B1 chain
modifications: acetyl-lysine at 91 and 109 (found by LC-MS/MS)

Target: T1, His-FliM
Test: SPR

Row | Binder | Kd [µM]
1 | B1 | 1.63
2 | B2 | 9.4
